Assay results: the DeepSol protein solubility set

Assay: soluble on expression in E. coli; label from the status in PepcDB or PDB records

Sequence	soluble on expression in E. coli
MGHHHHHHSHMPMYQVKPYHGGGAPLRVELPTCMYRLPNVHGRSYGPAPGAGHVQEESNLSLQALESRQDDILKRLYELKAAVDGLSKMIQTPDADLDVTNIIQADEPTTLTTNALDLNSVLGKDYGALKDIVINANPGSPPLSLLVLHRLLCEHFRVLSTVHTHSSVKSVPENLLKCFGEQNKKQPRQDYQLGFTLIWKNVPKTQMKFSIQTMCPIEGEGNIARFLFSLFGQKHNAVNATLIDSWVDIAIFQLKEGSSKEKAAVFRSMNSALGKSPWLAGNELTVADVVLWSVLQQIGGCSVTVPANVQRWMRSCENLAPFNTALKLLK	not soluble
MAKKVAICTLLYSRDYLPGALTLAYQLQKLLKHAVVEDEITLCLLIEKKLFGDEFKPQEIALIRSLFKEIIIIEPLKDQEKSIEKNKANLELLKRPELSHTLLKARLWELVQFDQVLFLDADTLPLNKEFFEILRLYPEQTRFQIAAVPDIGWPDMFNTGVLLLIPDLDMATSLQDFLIKTVSIDGADQGIFNQFFNPICNYSKEVLHKVSPLMEWIRLPFTYNVTMPNYGYQSSPAMNFFQQHIRLIHFIGTFKPWSRNTTDYDDHYYQLWRSTQRELYSECHLSNYFTHLQLGNIETETNFYHEPPCLQDLLNHGKRENQKHVDLDITSVDRNASQKSTAEKHDIEKPTSKPQSAFKFDWESTDYLDRVQRAFPKPDT	soluble
MNFLLILTLISIIVRSRQENASMDPCNDFYDYVCTNDTRSITKLNFASLFDDREILKPNISFPNNGTYIALDQILEPDRLMKWYMTVKSLDTATVDLEYFFETHYEYISKKNDSEKFSFAVETLENVNLTLTNIFYNSLYANIKVLNQLNLPAAEENKFLHHISNLLKNNTIEEIWSSSLSNKSKKVLDEELNNSKVFFGLLDYNNVTMLEETKLVYETEYYRLKSLLSSDDLDTEIAEKILRLGAIDTATKYLAKRIPGYEPEFLFSAFASNMENEAFKHNSAIYAGIVTRSDLQQPMLAIADTVSVLAHELMHFVYPSGTELLTPNVTKAAKKCTQDEVKRMGDSDVVKPIDGWFSKKVTHEDLANIMGLRMVMKMVARKSASEEQLKNALETLLSGLCIQGKPKNSILPHHHPFEISINTAVRQYPLFSSLYGCRLGDRMFAEAEQFCKPLGGEVNLEDYKIKNDTEDIGGFFTYIMDTANAFNFSFRN	not soluble
MTVRRTAAARRGRDRKAEIVFPAPGADRFGRGDEPSVAVIGGGIAGLAAATLMAERGARVTLYEKEDAVGGRLSGRRTTLADGSAVTMTRGFHAFFRQYYNLRGLLRRTDPGLDRLTPLPDYPLRHSGGLTDGFARVPRTPPLSAIGFVALSPTFGWRDLAAMDPRAALPLLDVRVPQVYERFDGVTATAFLESVRFPEAAHHLAFEVFSRSFFADPRRLSAAELLLMFHIYFLGSSEGLLFDVPVEPFPQALWNPLGDYLRRLGADVRTGTPVHGILPRADGGADVLTDTGADRHQAVVLALDTAGLRQTVAASPGLGTDTWRDGIAALRTAPPFLVSRLWLDRPVDADRPGFLGTSGYGGLDNVSVLERYEGEAARWAARTGGSVVELHAYAVDPAAEPKEVQDELVDRLHQAYPETREARVVDARHEWRADCPMFEVGSHRRRPTVRTPHPWLTLAGDGIRCDLPVALMERAATTGFLAANALLADRGVRGQVLWTVPRTGRSPVLRAFGAVAGHRSAPLEHHHHHH	not soluble
MGSDKIHHHHHHMSGIRLVRAKITYLHDSCTFNFINENMSVKLLWSVPYRGDRMITYESVYPIQSKDVAKLIITKVRNNPKTLSVFDRSINGKTLFIGYLEYSDNSPFYLSNRVGTIFYDEYTGTGGDVISMITTADNFDLIREDLSVYGKIVHRQVQEIEAESINGPPRLTEMQEKVLRNAFEMGFFNYPKDVHLKDIAQKIGVSAVSVDQYLREAQRKLIRAYLNG	not soluble
MASLIQVRDLLALRGRMEATQISHTLHAPQPMIDAMLNQLEIMGKAVRIPEEPDGCLSGSCKSCPEGKACLREWWALR	not soluble
MPKRNDIKTILVIGSGPIIIGQAAEFDYAGTQACLALKEEGYRVILVNSNPATIMTDKEIADKVYIEPLTHDFIARIIRKEQPDALLPTLGGQTGLNMAIQLHESGVLQDNNVQLLGTELTSIQQAEDREMFRTLMNDLNVPVPESDIVNTVEQAFKFKEQVGYPLIVRPAFTMGGTGGGICHNDEELHEIVSNGLHYSPATQCLLEKSIAGFKEIEYEVMRDKNDNAIVVCNMENIDPVGIHTGDSIVVAPSQTLSDVEYQMLRDVSLKVIRALGIEGGCNVQLALDPHSFDYYIIEVNPRVSRSSALASKATGYPIAKLAAKIAVGLTLDEMLNPITGTSYAAFEPTLDYVISKIPRFPFDKFEKGERELGTQMKATGEVMAIGRTYEESLLKAIRSLEYGVHHLGLPNGESFDLDYIKERISHQDDERLFFIGEAIRRGTTLEEIHNMTQIDYFFLHKFQNIIDIEHQLKEHQGDLEYLKYAKDYGFSDKTIAHRFNMTEEEVYQLRMENDIKPVYKMVDTCAAEFESSTPYYYGTYETENESIVTDKEKILVLGSGPIRIGQGVEFDYATVHAVWAIQKAGYEAIIVNNNPETVSTDFSISDKLYFEPLTEEDVMNIINLEKPKGVVVQFGGQTAINLADKLAKHGVKILGTSLENLNRAEDRKEFEALLRKINVPQPQGKTATSPEEALANAAEIGYPVVVRPSYVLGGRAMEIVDNDKELENYMTQAVKASPEHPVLVDRYLTGKEIEVDAICDGETVIIPGIMEHIERAGVHSGDSIAVYPPQTLTEDELATLEDYTIKLAKGLNIIGLINIQFVIAHDGVYVLEVNPRSSRTVPFLSKITDIPMAQLAMRAIIGEKLTDMGYQEGVQPYAEGVFVKAPVFSFNKLKNVDITLGPEMKSTGEVMGKDTTLEKALFKGLTGSGVEVKDHGTVLMTVSDKDKEEVVKLAQRLNEVGYKILATSGTANKLAEYDIPAEVVGKIGGENDLLTRIQNGDVQIVINTMTKGKEVERDGFQIRRTTVENGIPCLTSLDTANALTNVIESMTFTMRQM	not soluble
MAASPLVVQKTEEEWRAVLSPEQFRILRQKGTEKPGTGEYDKFFEEGIFDCVGCKTPLYKSTTKFDSGCGWPAFFEGLPGAINRTPDPDGRRTEITCAACDGHLGHVFKGEGYGNPTDERHCVNSVSISFNPAKSSSII	soluble
MPLVSMKEMLNKALEGKYAVGQFNMNNLEWTQAILAAAEEEKSPVILGVSEGAARHMTGFKTVVAMVKALIEEMNITVPVAIHLDHGSSFEKCKEAIDAGFTSVMIDASHHPFEENVETTKKVVEYAHARNVSVEAELGTVGGQEDDVIAEGVIYADPAECKHLVEATGIDCLAPALGSVHGPYKGEPNLGFAEMEQVRDFTGVPLVLHGGTGIPTADIEKAISLGTSKINVNTENQIEFTKAVREVLNKDQEVYDPRKFIGPGRDAIKATVIGKIREFGSNGKA	not soluble
MSLGPILVASEDYGRRVELSAMLRGFGYRVIEAENGLRTIDLLHRRKNIVLALLDVVMSDLSVGDLIKMIRVAGVAVPIVVIAQQENQELLQKALTAGAIDYWIHPVTLLRLRVTLDTLALISALEREVHYIRRKKENHLRFSDLSIKSRAMQIVLEQSKRAASSLQNLLIEGEVGTGRETLARIIHHEGLLSEGDFIRFQCLAIVDPEEENHQWFKEFIPLVSSLEKGTLCLCDVDRLEPIQQKRFMHYLKEREKATKDKVFPFRIIAISTSRLSDLVKEGFFLHSLFEQFSQLSISVPALRELRDDFPDLTQRLIDRIITETGRSHVHGLAGSALSLLMQYDWPGNRNGLENFLFRAILLSDGPLLTVRDFPQLMGNSLMNVPKIIESNMQEDHEQESVKFLDVDGHVRTFAEMERDIIEKAFKHYKGHMSEIARRLRIGRSTLYRKIEGLRAISSQEGHHHHHH	soluble
MKTLFLQYPACSTCQKAKKWLIENNIEYTNRLIVDDNPTVEELKAWIPLSGLPVKKFFNTSGVVYKELKLSSKLPTMTEEEQIALLATNGKLVKRPLVVTERFVLVGFKPEEWEKL	not soluble
MSLANKILTEKDTDQIRFSILASGSSGNATLVETGDQKILIDCGLSGKKMEGLFAQVGRDMNDLDAILITHEHSDHIKGLGVLARKYKLPIYANAKTWKAMDNMIGEVSSDQKFQFDMETVKTFGSMQVESFGVSHDAIEPMFYIFHKGNKKFVMITDTGYVSDRMKGHIAGADAYLFESNHDVEMLRMGRYPWNVKRRILGDEGHVSNEDAAIAMSEVITDQTKRIYLGHLSKDNNMKELARMSVTQTLMAEGIDVGGKLEIFDTDPDNATSIFTEGHHHHHH	not soluble
MGSDKIHHHHHHMTAIQHIERLARGRSEQAVAVIKNVQQMSNIPMHEMQLALKQLLNCGRIALHFHPDRIDSRGMTVAEGLLRDGQYRSQFETHISNGQLSPELGGPRDHWENQLFGDVYKGTKSRPKYGALDLGMWQDGPAPRFGSCYLLTHASVMARSTFCYLDSYRNPKEKGTLSCFDDVLAALLTESFERHYALGKSDFKPLNVIHYLGHQLNASLLSRFERPLSNNLDHYIEAQIHGDVSLDEDIAMLVADPSFKGTDIGASLSKICDRYDIELQYHDGFSLHTAQIPSDFRGPTMPSQANRIAIEDRVDAYAIGVAARDLYHSPQHWRDRGNRAQVAHELKLLWHVLVKYGAVQ	not soluble
SHMAIVKVTDADFDSKVESGVQLVDFWATACGPCKMIAPVLEELAADYEGKADILKLDVDENPSTAAKYEVMSIPTLIVFKDGQPVDKVVGFQPKENLAEVLDKHL	soluble
MGSDKIHHHHHHMSVETLPIILKELRLVSLLPHWQPLAEKAREQHWPVERYLAELCQLELSCREQKRLHRGLKEATLPIGKYLDTYDFSEVEGLSKKQVWHLADNAEWLKTGDNILLFGASGLGKTHIAAGLGYRLVEQGHRVKFMSASLLVQHLQKAKEELRLPEALVKLDRFAVLILDDLGYVQKSTEETSVLFELIAHRYERYSLIITSNQSFEDWDKLFSDTVMTVAAIDRLIHHAKILQCKGESYRRKEAQNKLN	not soluble
MGSDKIHHHHHHMQILIYSYNYHPEPIGIAPLMTELAEGLVKRGHQVRVITGMPNYPQRQIYDRYRGKLYVTEQKNGVKIQRSYLRIKSKPNLIDRLLLELSFVFTSLPQALKGERPDVILLTIPPLLVCLPATLIGWLYNCPVVLNVQDILPEAGVRVGLIKNKLMIQALEALEKFAYRTAHTISVIADGFVDNLINKGVPANKIACIPNWVNLNFIRPLPKVNNSWRATHQLDGKFVVLYSGNIALTQGLETVIEAAARLRHLKEIIFVVAGESQALERLQKHCLACGADNVLLLTLQAREKLPQMLAAADVGLIVQKCNVISFNMPSKIPLLLASGRPIVGSVPALGTAAKAIRESGGGVIVEPESAGALAAAVLDLYHQPELAAQLGCKGRKFAVENYSFEQALDRYEELFADAIAKRATNLDILPEMSSKQSLVDI	not soluble
MGSDKIHHHHHHAIGFGLSYGTEIESIGLGLKYQYNITNPIRLEPSLNYFIENDNVSMLDINMNLHYLCPVGRSVKLYPLFGFTFSNWMFDLGDGFDIDVDGDHIHIDKDDDNHNECRVGVNIGGGADFALTSSWIMNFELRYQLVSDFDQAVFNLGFAYRF	not soluble
MRKAAALSLLVLVILSTTLAGCNFGKGSNEEDSKGTNLKLPCSIVSTISGEDVLYYEIEGDSLKKLDLDLKGHMEVYSEELGLAVYREFADKGTNLIITNGVKEHKISVEGNIEELIISPKGTKLLYRYNSGDKIGYKVLDLQNFKEFDFNENLAISGENVKFVNEDQLILYGVDLEKRQSGLYIYNIKDGSYTLEKQIVKAFIDYIDLVEDQVVLYTQSSIDGKKNCYIYNLDSKKESVISNEVGEIESLCKIGNVVYFIGTKGEGLRSLYSIDITNNKLDRLVYDFPKNISEKSKLIVVGDNIYFLGFNDSKEKNALYRYNLKDKSIKLIDSNKGQYIIIKMAGDPLEHHHHHH	not soluble
GKREPDLTGGFSTYLKYKNITFNALFSFSFGNKMRLNDLYESSGQRLPYPDQNMSSEFVNRWREPGDEDRTIIPVLSDKSLQINDKDVTYRIADNGWDMYNKSDIRVVSGSFLRCRSMSIRYDFKREWLKPVYLKGASVSFDMGNVFVIKDKALKGRDPEQIGFGSRSIPPQRSYSLRFNITL	not soluble
